Measurements as given in patent publication US20090022728A1 (RINAT NEUROSCIENCE, published 2009).

Tests used:
[1] = biological target: T1, biotinylated Aβ1-40 peptide (biotinylated (N-biotinylated in Example 7)); assay: SPR, Fab over Aβ1-40 on SA chip
T1 construct: captured on streptavidin (SA) chip; also called Biotinylated Aβ peptide 1-40; Aβ1-40 on SA chip
Method: (§1) Affinities of 9TL Fab fragment and its variants Fab fragments were determined by Surface Plasmon Resonance (SPR) system (BIAcore 3000™, BIAcore, Inc., Piscaway, N.J.). SA chips (streptavidin) were used according to the supplier's instructions. Biotinylated Aβ peptide 1-40 was diluted into HBS-EP (10 mM HEPES pH 7.4, 150 mM NaCl, 3 mM EDTA, 0.005% P20) and injected over the chip at a concentration of 0.005 mg/mL. Using variable flow time across the individual chip channels, two ranges of antigen density were achieved: 10-200 response units (RU) for detailed kinetic studies and 500-600 RU for concentration studies and screening. […] HBS-EP buffer was used as running buffer for all the BIAcore assays. […] The concentrations of the Fab proteins were determined by ELISA and/or SDS-PAGE electrophoresis using a standard Fab of known concentration (determined by amino acid analysis). Kinetic association rates (kₒₙ) and dissociation rates (koff) were obtained simultaneously by fitting the data to a 1:1 Langmuir binding model (Karlsson, R. Roos, H. Fagerstam, L. Petersson, B. (1994). Methods Enzymology 6. 99-110) using the BIAevaluation program. Equilibrium dissociation constant (KD) values were calculated as koff/kₒₙ.
(§2) All amino acid substitutions of the variants shown in Table 3 are described relative to the sequence of 9TL. KD and other kinetic parameters were determined by BIAcore analysis described above with Aβ₁₋₄₀ immobilized on SA chip.

[2] = biological target: T1, biotinylated Aβ1-40 peptide; assay: SPR, Fab over Aβ1-40 on SA chip; KD=koff/kon
Method: as §1, §2

[3] = biological target: T1, biotinylated Aβ1-40 peptide; assay: SPR, Fab over Aβ1-40 on SA chip; kon may be assumed = 9TL (footnote 2)
Method: as §1, §2

T1 sequence (peptide, as listed by the source): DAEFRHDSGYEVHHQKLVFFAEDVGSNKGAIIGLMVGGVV

Row | Binder | koff [1] [s⁻¹] | Kd [2] [nM] | kon [3] [M⁻¹ s⁻¹]
1 | 9TL variant M29 Fab (Fab, V domains shown, Fab; human IgG2 CH1 and kappa CL) VH: QVQLVQSGAEVKKPGASVKVSCKASGYYTEAYYIHWVRQAPGQGLEWMGRIDPATGNTKYAPRLQDRVTMTRDTSTSTVYMELSSLRSEDTAVYYCASLYSLPVYWGQGTTVTVSS VL: DVVMTQSPLSLPVTLGQPASISCKSSQSLLYSDAKTYLNWFQQRPGQSPRRLIYQISRLDPGVPDRFSGSGSGTDFTLKISRVEAEDVGVYYCLQGTHYPVSFGQGTRLEIKR | 0.00076 | 2.39 | 318000
2 | 9TL variant M36 Fab (Fab, V domains shown, Fab; human IgG2 CH1 and kappa CL) VH: QVQLVQSGAEVKKPGASVKVSCKASGYYTEAYYIHWVRQAPGQGLEWMGRIDPATGNTKYAPRLQDRVTMTRDTSTSTVYMELSSLRSEDTAVYYCASLYSRPVYWGQGTTVTVSS VL: DVVMTQSPLSLPVTLGQPASISCKSSQSLLYSDAKTYLNWFQQRPGQSPRRLIYQISRLDPGVPDRFSGSGSGTDFTLKISRVEAEDVGVYYCLQGTHYPVLFGQGTRLEIKR | 0.0009 | 2.83 | 318000
3 | 9TL variant M46 Fab (Fab, V domains shown, Fab; human IgG2 CH1 and kappa CL) VH: QVQLVQSGAEVKKPGASVKVSCKASGYYTEAYYIHWVRQAPGQGLEWMGRIDPATGNTKYAPRLQDRVTMTRDTSTSTVYMELSSLRSEDTAVYYCASLYSLPCYWGQGTTVTVSS VL: DVVMTQSPLSLPVTLGQPASISCKSSQSLLYSDAKTYLNWFQQRPGQSPRRLIYQISRLDPGVPDRFSGSGSGTDFTLKISRVEAEDVGVYYCLQGTHYPVLFGQGTRLEIKR | 0.02 | 62.9 | 318000
4 | 9TL variant M31 Fab (Fab, V domains shown, Fab; human IgG2 CH1 and kappa CL) VH: QVQLVQSGAEVKKPGASVKVSCKASGYYTEAYYIHWVRQAPGQGLEWMGRIDPATGNTKYAPRLQDRVTMTRDTSTSTVYMELSSLRSEDTAVYYCASVYSLPVYWGQGTTVTVSS VL: DVVMTQSPLSLPVTLGQPASISCKSSQSLLYSDAKTYLNWFQQRPGQSPRRLIYQISRLDPGVPDRFSGSGSGTDFTLKISRVEAEDVGVYYCLQGTHYPVLFGQGTRLEIKR | 0.01 | 31.4 | 318000
5 | 9TL variant M43 Fab (Fab, V domains shown, Fab; human IgG2 CH1 and kappa CL) VH: QVQLVQSGAEVKKPGASVKVSCKASGYYTEAYYIHWVRQAPGQGLEWMGRIDPATGNTKYAPRLQDRVTMTRDTSTSTVYMELSSLRSEDTAVYYCASLYSLPIYWGQGTTVTVSS VL: DVVMTQSPLSLPVTLGQPASISCKSSQSLLYSDAKTYLNWFQQRPGQSPRRLIYQISRLDPGVPDRFSGSGSGTDFTLKISRVEAEDVGVYYCLQGTHYPVLFGQGTRLEIKR | 0.0003 | 0.94 | 318000
6 | 9TL variant M32 Fab (Fab, V domains shown, Fab; human IgG2 CH1 and kappa CL) VH: QVQLVQSGAEVKKPGASVKVSCKASGYYTEAYYIHWVRQAPGQGLEWMGRIDPATGNTKYAPRLQDRVTMTRDTSTSTVYMELSSLRSEDTAVYYCASIYSLPVYWGQGTTVTVSS VL: DVVMTQSPLSLPVTLGQPASISCKSSQSLLYSDAKTYLNWFQQRPGQSPRRLIYQISRLDPGVPDRFSGSGSGTDFTLKISRVEAEDVGVYYCLQGTHYPVLFGQGTRLEIKR | 0.02 | 62.9 | 318000
7 | 9TL variant M30 Fab (Fab, V domains shown, Fab; human IgG2 CH1 and kappa CL) VH: QVQLVQSGAEVKKPGASVKVSCKASGYYTEAYYIHWVRQAPGQGLEWMGRIDPATGNTKYAPRLQDRVTMTRDTSTSTVYMELSSLRSEDTAVYYCASLYSLPVYWGQGTTVTVSS VL: DVVMTQSPLSLPVTLGQPASISCKSSQSLLYSDAKTYLNWFQQRPGQSPRRLIYQISRLDPGVPDRFSGSGSGTDFTLKISRVEAEDVGVYYCLQGTHYPVVFGQGTRLEIKR | 0.00068 | 2.14 | 318000
8 | 9TL variant M40 Fab (Fab, V domains shown, Fab; human IgG2 CH1 and kappa CL) VH: QVQLVQSGAEVKKPGASVKVSCKASGYYTEAYYIHWVRQAPGQGLEWMGRIDPATGNTKYAPRLQDRVTMTRDTSTSTVYMELSSLRSEDTAVYYCASLYSTPVYWGQGTTVTVSS VL: DVVMTQSPLSLPVTLGQPASISCKSSQSLLYSDAKTYLNWFQQRPGQSPRRLIYQISRLDPGVPDRFSGSGSGTDFTLKISRVEAEDVGVYYCLQGTHYPVLFGQGTRLEIKR | 0.0045 | 14.2 | 318000
9 | 9TL variant M47 Fab (Fab, V domains shown, Fab; human IgG2 CH1 and kappa CL) VH: QVQLVQSGAEVKKPGASVKVSCKASGYYTEAYYIHWVRQAPGQGLEWMGRIDPATGNTKYAPRLQDRVTMTRDTSTSTVYMELSSLRSEDTAVYYCASLYSLPQYWGQGTTVTVSS VL: DVVMTQSPLSLPVTLGQPASISCKSSQSLLYSDAKTYLNWFQQRPGQSPRRLIYQISRLDPGVPDRFSGSGSGTDFTLKISRVEAEDVGVYYCLQGTHYPVLFGQGTRLEIKR | 0.02 | 62.9 | 318000
10 | 9TL variant M38 Fab (Fab, V domains shown, Fab; human IgG2 CH1 and kappa CL) VH: QVQLVQSGAEVKKPGASVKVSCKASGYYTEAYYIHWVRQAPGQGLEWMGRIDPATGNTKYAPRLQDRVTMTRDTSTSTVYMELSSLRSEDTAVYYCASLYSVPVYWGQGTTVTVSS VL: DVVMTQSPLSLPVTLGQPASISCKSSQSLLYSDAKTYLNWFQQRPGQSPRRLIYQISRLDPGVPDRFSGSGSGTDFTLKISRVEAEDVGVYYCLQGTHYPVLFGQGTRLEIKR | 0.0015 | 4.72 | 318000
11 | 9TL variant M42 Fab (Fab, V domains shown, Fab; human IgG2 CH1 and kappa CL) VH: QVQLVQSGAEVKKPGASVKVSCKASGYYTEAYYIHWVRQAPGQGLEWMGRIDPATGNTKYAPRLQDRVTMTRDTSTSTVYMELSSLRSEDTAVYYCASLYSEPVYWGQGTTVTVSS VL: DVVMTQSPLSLPVTLGQPASISCKSSQSLLYSDAKTYLNWFQQRPGQSPRRLIYQISRLDPGVPDRFSGSGSGTDFTLKISRVEAEDVGVYYCLQGTHYPVLFGQGTRLEIKR | 0.015 | 47.2 | 318000
12 | 9TL variant M41 Fab (Fab, V domains shown, Fab; human IgG2 CH1 and kappa CL) VH: QVQLVQSGAEVKKPGASVKVSCKASGYYTEAYYIHWVRQAPGQGLEWMGRIDPATGNTKYAPRLQDRVTMTRDTSTSTVYMELSSLRSEDTAVYYCASLYSQPVYWGQGTTVTVSS VL: DVVMTQSPLSLPVTLGQPASISCKSSQSLLYSDAKTYLNWFQQRPGQSPRRLIYQISRLDPGVPDRFSGSGSGTDFTLKISRVEAEDVGVYYCLQGTHYPVLFGQGTRLEIKR | 0.01 | 31.4 | 318000
13 | 9TL variant M37 Fab (Fab, V domains shown, Fab; human IgG2 CH1 and kappa CL) VH: QVQLVQSGAEVKKPGASVKVSCKASGYYTEAYYIHWVRQAPGQGLEWMGRIDPATGNTKYAPRLQDRVTMTRDTSTSTVYMELSSLRSEDTAVYYCASLYSAPVYWGQGTTVTVSS VL: DVVMTQSPLSLPVTLGQPASISCKSSQSLLYSDAKTYLNWFQQRPGQSPRRLIYQISRLDPGVPDRFSGSGSGTDFTLKISRVEAEDVGVYYCLQGTHYPVLFGQGTRLEIKR | 0.00092 | 2.89 | 318000
14 | 9TL variant M39 Fab (Fab, V domains shown, Fab; human IgG2 CH1 and kappa CL) VH: QVQLVQSGAEVKKPGASVKVSCKASGYYTEAYYIHWVRQAPGQGLEWMGRIDPATGNTKYAPRLQDRVTMTRDTSTSTVYMELSSLRSEDTAVYYCASLYSSPVYWGQGTTVTVSS VL: DVVMTQSPLSLPVTLGQPASISCKSSQSLLYSDAKTYLNWFQQRPGQSPRRLIYQISRLDPGVPDRFSGSGSGTDFTLKISRVEAEDVGVYYCLQGTHYPVLFGQGTRLEIKR | 0.0023 | 7.23 | 318000
15 | 9TL variant M48 Fab (Fab, V domains shown, Fab; human IgG2 CH1 and kappa CL) VH: QVQLVQSGAEVKKPGASVKVSCKASGYYTEAYYIHWVRQAPGQGLEWMGRIDPATGNTKYAPRLQDRVTMTRDTSTSTVYMELSSLRSEDTAVYYCASLYSLPSYWGQGTTVTVSS VL: DVVMTQSPLSLPVTLGQPASISCKSSQSLLYSDAKTYLNWFQQRPGQSPRRLIYQISRLDPGVPDRFSGSGSGTDFTLKISRVEAEDVGVYYCLQGTHYPVLFGQGTRLEIKR | 0.026 | 81.8 | 318000
16 | 9TL variant M35 Fab (Fab, V domains shown, Fab; human IgG2 CH1 and kappa CL) VH: QVQLVQSGAEVKKPGASVKVSCKASGYYTEAYYIHWVRQAPGQGLEWMGRIDPATGNTKYAPRLQDRVTMTRDTSTSTVYMELSSLRSEDTAVYYCASLYGLPVYWGQGTTVTVSS VL: DVVMTQSPLSLPVTLGQPASISCKSSQSLLYSDAKTYLNWFQQRPGQSPRRLIYQISRLDPGVPDRFSGSGSGTDFTLKISRVEAEDVGVYYCLQGTHYPVLFGQGTRLEIKR | 0.009 | 28.3 | 318000
